Test results from US20230331827A1, “POTASSIUM CHANNEL INHIBITORS” (priority 2017, published 2023).

What was measured:
trypsin [1] = assay: Phage TRF binding assay on immobilised biotinylated trypsin (monoclonal phage ELISA)
Protocol: Phage display technology facilitates isolation of binders to any given target from large combinatorial repertoires based on proteins and peptides that can be presented on the surface of filamentous phage^105. In order to isolate functional knottin-antibody fusions from the KnotBody libraries multiple rounds of phage display selections on trypsin (cognate antigen for the EETI-II donor) were carried out. Phage particles were prepared by rescuing KnotBody libraries using trypsin cleavable helper phage ^102,106Two rounds of phage display selections were performed on 10 µg/ml biotinylated trypsin immobilised on Streptavidin (for Round-1) or Neutravidin (for round-2) coated Maxisorp™ immunotubes (Thermo Scientific, Cat No. 444202). In both rounds of selection, phage libraries were pre-incubated with streptavidin coated paramagnetic beads (Thermo Fisher Scientific, Cat. No. 11205D). These beads were removed prior to the addition the phage to the antigen tubes to limit the streptavidin binders entering the selection. Polyclonal phage preparations from round-2 selection outputs were analysed for trypsin binding using a time resolved fluorescence (TRF) binding assay. In this assay, polyclonal phage binding to biotinylated trypsin immobilised on neutravidin (Thermo Fisher Scientific, Cat. No 31000) coated Maxisorp™ plates (Thermo Scientific, Cat. No. 437111) was detected using a mouse anti-M13 antibody (GE Healthcare, Cat. No. 27-9420-01) followed by europium conjugated anti-mouse antibody (Perkin Elmer, Cat. No. AD0124).
In order to identify monoclonal KnotBodies with desired binding characteristics, 94 individual clones derived from 2 rounds of selection using EETI-II CDR1 or CDR2 libraries were picked into 96 well culture plates and phage were prepared from each clone. Methods for screening by monoclonal phage ELISA are known in the art^107. […] Clones with >3x binding signal above background were picked as positive clones and sequenced to identify unique clones. 14 and 42 unique binders were identified from EETI-II CDR1 and EETI-II CDR2 libraries respectively (Table 1). 18 binders from the EETI-II CDR2 library and 3 binders from the EETI-II-CDR1 library were chosen for further characterisation based on their VL and linker sequence diversity. These binders were assigned new clone identification numbers (Table 2).
The trypsin binding capability of EETI-II is attributed to proline (Pro3) and arginine (Arg4) residues present in its loop1 (GCPRILMRC; SEQ ID NO: 68). […] Monoclonal phage was prepared from the 21 selected clones and their mutant equivalents. […] Replacement of the trypsin-binding residues of EETI-II abolished the ability of all KnotBody clones to bind to trypsin (Table 3). In order to confirm that the loss of trypsin binding was not due to reduced expression or display of pIII fusion phage was prepared from 11 (randomly chosen) KnotBodies and their GlyAla variants were analysed on a western blot using an antibody which recognises the product of gene 3 (pIII) using an anti-pIII antibody (MoBiTec GmbH) (FIG. 6).
Bovine antibodies have been described with natural ultra-long VH CDR3s containing a solvent exposed double stranded antiparallel sheet approximately 20 A° in length (referred to as the stalk) presenting a folded domain stabilised by 3 disulfide bonds (referred to as the Knob)^10. Zhang and colleagues have shown that the Knob domains of these cow ultra-long VH CDR3 antibodies (ULVC-Ab) can be replaced with other folded proteins such as erythropoietin^13. In this example, we assess the ability of a cow ULVC-Ab to present functional knottin fusions on phage in comparison with a KnotBody. In order to create a Knottin-cow UCLA fusion, the sequence between the first and the last cysteines of the knob region of the Cow ULVC-Ab BLV1H12 was replaced with the sequence of the trypsin binding knottin; EETI-II (EETI-II cow ULVC-Ab). A gene fragment encoding this construct was synthesised (Integrated DNA technologies, Table 21). […]

trypsin [2] = assay: KnotBody Fab TRF binding assay on biotinylated trypsin
Protocol: In order to confirm the trypsin binding ability of KnotBodies in Fab format, purified proteins were tested for binding to trypsin using a TRF binding assay. In this assay binding of KnotBody Fabs ([…]) to biotinylated trypsin (immobilised on streptavidin coated Maxisorp™ plates) was detected using a mouse anti-CH1 antibody followed by a europium conjugated anti-mouse antibody (Table 4). 7 KnotBodies (KB_A04, KB_A01, KB_A05, KB_A07, KB_A08, KB_A10, KB_A12) were chosen for crystallisation. DNA prepared for these clones were transfected into 500 ml HEK-293F cells as described before. Expressed proteins were purified using CaptureSelect IgG-CH1 affinity matrix. Purified proteins were initially subjected to crystallisation trials using commercially available crystallisation screens (Supplier). Well-defined crystals were readily obtained for KB_A12 and KB_A05. Crystallisation conditions for these two clones were further optimised and the following condition was used to generate diffraction quality crystals: 0.1 M MES pH=6.5, 25 %w/v PEG MME 2000 and 0.1 M Tris.Cl, 50% PEG MME, 10 mM NiCl2. Complete diffraction data was collected on these crystals at 100 K under liquid nitrogen stream. Collected data was processed using PROTEUM2 software (Bruker). The crystal structure of the knottin-fused Fab antibodies was resolved using molecular replacement technique^109 using Phenix software v 1.8.1-1168^110. Resulting structure was further refined using Phenix.Refine^111. The templates for molecular replacement were downloaded from PDB website (www.rcsb.org/pdb, PDB codes: 3G04 for light chain and 3QOS for heavy chain). KnotBody KB_A12 and KB_A05 sequences are given below. An additional AlaSer sequence is introduced at the N terminus of the light chain from the Nhe1 site used in cloning.
In order to compare the performance of the KnotBodies with short and long linkers, purified Fabs were tested for binding to trypsin by ELISA. In this assay binding of KnotBody Fabs (at 0.5 µg/ml) to biotinylated trypsin (5 µg/ml immobilised on streptavidin coated Maxisorp™ plates) was detected using a mouse anti-CH1 antibody (Hybridoma Reagent Laboratories) followed by a europium conjugated anti-mouse antibody (Perkin Elmer, Cat. No. AD0124). The trypsin binding capability of KB_A07 and KB_A12 KnotBodies were greatly diminished when the short selected linkers were replaced with long and flexible linkers (FIG. 22).

B1: KB_A05: EETI-II knottin fused into VL CDR2, D1A12 VH; trypsin binder (antibody)
heavy: EVQLVESGGGLVRPGGSLRLSCAASGFTFSSYAMSWVRQAPGKGLEWVSAISGSGGSTYYADSVKGRFTISRDNTKNSLYLQMTSLRADDTAFYYCVDFGPGYGTGWFDYWGPGTLVTVSSASTKGPSVFPLAPSSKSTSGGTAALGCLVKDYFPEPVTVSWNSGALTSGVHTFPAVLQSSGLYSLSSVVTVPSSSLGTQTYICNVNHKPSNTKVDKKVEPKSC
light: QSVLTQPPSVSEAPRQRVTITCSGSSSNIGNNAVNWYQQLPGKAPKLLIYAADKCPRILMRCKQDSDCLAGCVCGPNGFCGGGSGIPERFSGSKSGTSASLAISGLRSEDEADYYCATWDDNLNGVVFGGGTKLTVLGQPAAAPSVTLFPPSSEELQANKATLVCLISDFYPGAVTVAWKADSSPVKAGVETTTPSKQSNNKYAASSYLSLTPEQWKSHKSYSCQVTHEGSTVEKTVAPTECS
modifications: KB_A05 Heavy chain; KB_A05 Light chain
Trypsin [1]; GlyAla mutant (Pro3, Arg4 of EETI-II substituted) versus the clone, monoclonal phage
  % reduction in binding signal: 100%
Trypsin [1]; monoclonal phage supernatant, biotinylated trypsin on neutravidin plates
  Tryspin binding signal (FU): 121458 FU
Trypsin [2]; Fab 0.6 ug/mL
  TRF signal for 0.6 ug/mL Fab: 46706
Trypsin [2]; Fab 2.4 ug/mL
  TRF signal for 2.4 ug/mL Fab: 65386
Trypsin [2]; Fab 10 ug/mL
  TRF signal for 10 ug/mL Fab: 217918
